Assay results as given in article PMC7758071, “Calcium depletion challenges endoplasmic reticulum proteostasis by destabilising BiP-substrate complexes” (eLife, 2020).
“And” between values parts separate entries of the source, which are not always exact repeats. Identical values can stand only once. Ends that are not written are not given here. * marks the point of attachment. Biotin = O=C1N[C@H]2[C@H](CS[C@H]2CCCCC(=O)*)N1

Legend:
[1] = target: the molecule itself; test: crystal structure; BiP^T229A-V461F (28-549) at 150 µM with equimolar FICD^L258D-H363A and 175 µM ATP (FICD excluded from the crystals); apo: 20% PEG3350, 0.1 M Bis-Tris Propane pH 7.5, 0.2 M Na3Citrate; ADP-bound: 20% PEG3350, 0.2 M K3Citrate
[2] = target: T1, DnaK from Escherichia coli (UK2243) (Escherichia coli, UniProt P0A6Y8 1-638); test: BLI; as a14, but dissociation with Mg + Ca + ATP + ADP; settings: both partners purified
T1 construct: DnaK, the Hsp70 of Escherichia coli; also called bacterial DnaK; source: E. coli BL21 T7 Express lysY/Iq, purified (Ni-NTA, Ulp1 cleavage, anion exchange, second Ni-NTA); not shown: His6-Smt3, N-terminal, cleaved

[3] = target: T2, BiP (Chinese hamster, wild type, UK173) (Chinese hamster, UniProt G3I8R9 19-654); test: BLI; as a1, association with Mg + ATP; dissociation with Mg + ADP; settings: both partners purified
T2 construct: BiP (Grp78), the ER Hsp70 chaperone, Chinese hamster (Cricetulus griseus), wild type; called full-length BiP in the results; also called Grp78; mammalian BiP; source: E. coli M15, purified (Ni-NTA)

[4] = target: T2, BiP (Chinese hamster, wild type, UK173); test: BLI; as a1, association with Mg + ATP; dissociation (step 1) with Ca + ADP; settings: both partners purified
[5] = target: T2, BiP (Chinese hamster, wild type, UK173); test: BLI; as a7, but dissociation with Mg + Ca + ATP + ADP ([MgCl2]/[CaCl2]=3; [ATP]/[ADP]=2); settings: both partners purified
[6] = target: T2, BiP (Chinese hamster, wild type, UK173); test: BLI; as a7, dissociation with Mg + ATP + ADP and Grp170 present in the dissociation step; settings: both partners purified
[7] = target: T2, BiP (Chinese hamster, wild type, UK173); test: BLI; as a7, but dissociation with Mg + Ca + ATP + ADP ([MgCl2]/[CaCl2]=3; [ATP]/[ADP]=2); settings: both partners purified; remark: listed apart in the source
[8] = target: T3, BiP from Drosophila melanogaster (UK2354) (Drosophila melanogaster, UniProt P29844 19-656); test: as above; settings: both partners purified
T3 construct: BiP homologue of Drosophila melanogaster; the ER signal peptide is probably absent from the bacterial construct; also called dBiP; Drosophila BiP; source: E. coli BL21 T7 Express lysY/Iq, purified (Ni-NTA, Ulp1 cleavage, anion exchange); not shown: His6-Smt3, N-terminal, cleaved

[9] = target: T4, human cytosolic Hsp70 (HSPA1A; UK2510; natural variant E110D) (human, UniProt P0DMV8 1-641, E110D); test: as above; settings: both partners purified
T4 construct: human cytosolic Hsp70 (HSPA1A), natural variant E110D; source: E. coli BL21 T7 Express lysY/Iq, purified (Ni-NTA, Ulp1 cleavage, anion exchange); not shown: His6-Smt3, N-terminal, cleaved

[10] = target: T5, human Hsc70 (HSPA8; UK2511) (human, UniProt P11142 1-646); test: as above; settings: both partners purified
T5 construct: human cytosolic Hsc70 (HSPA8); source: E. coli BL21 T7 Express lysY/Iq, purified (Ni-NTA, Ulp1 cleavage, anion exchange); not shown: His6-Smt3, N-terminal, cleaved

[11] = target: T2, BiP (Chinese hamster, wild type, UK173); test: as above; settings: both partners purified; remark: listed apart in the source
[12] = target: T2, BiP (Chinese hamster, wild type, UK173); test: BLI; as a1, association with Mg + ATP; dissociation with Mg + Ca + ATP ([MgCl2]/[CaCl2]=3); settings: both partners purified
[13] = target: T2, BiP (Chinese hamster, wild type, UK173); test: BLI; as a8, dissociation with Mg + Ca + ATP + ADP and Grp170 present in the dissociation step; settings: both partners purified
[14] = target: T2, BiP (Chinese hamster, wild type, UK173); test: BLI; as a1, but association with Mg + Ca + ATP ([MgCl2]/[CaCl2]=3); dissociation with Mg + ATP; settings: both partners purified
[15] = target: T2, BiP (Chinese hamster, wild type, UK173); test: BLI; as a1, association with Mg + ATP; dissociation with Ca + ATP (Ca2+ the only divalent cation); settings: both partners purified
[16] = target: T2, BiP (Chinese hamster, wild type, UK173); test: BLI; as a1, but the non-functional H422Q J-domain (J^QPD) co-immobilised with P15; association with Mg + ATP; dissociation with Mg + ATP; settings: both partners purified
[17] = target: T2, BiP (Chinese hamster, wild type, UK173); test: as above; settings: both partners purified; remark: listed apart in the source
[18] = target: T2, BiP (Chinese hamster, wild type, UK173); test: BLI; as a1, association with Mg + ATP; first dissociation step with Ca + ADP, then second dissociation step (the one fitted) with Mg + ATP; settings: both partners purified
[19] = target: T2, BiP (Chinese hamster, wild type, UK173); test: BLI; as a1, association with Mg + ATP; first dissociation step with Mg + ADP, then second dissociation step (the one fitted) with Mg + ATP; settings: both partners purified
[20] = target: T2, BiP (Chinese hamster, wild type, UK173); test: BLI; streptavidin sensor with biotinylated ERdj6 J-domain (J) and biotinylated P15 co-immobilised; association: 5 µM BiP, MgCl2 + ATP; dissociation in protein-free solution with Mg + ATP; 28°C; 50 mM HEPES-KOH pH 7.4, 100 mM KCl, 0.2 mM TCEP, 0.05% Triton X-100; one-phase decay fit; settings: both partners purified
[21] = target: T2, BiP (Chinese hamster, wild type, UK173); test: BLI; streptavidin sensor with biotinylated ERdj6 J-domain (J) and biotinylated P15 co-immobilised; association: 5 µM Hsp70, 3 mM MgCl2, 1.5 mM ATP; dissociation in protein-free solution with Mg + ATP + ADP ([ATP]/[ADP]=2); 28°C; 50 mM HEPES-KOH pH 7.4, 100 mM KCl, 0.2 mM TCEP, 0.05% Triton X-100; one-phase decay fit; settings: both partners purified
[22] = target: T2, BiP (Chinese hamster, wild type, UK173); test: as above; settings: both partners purified; remark: listed apart in the source
[23] = target: T3, BiP from Drosophila melanogaster …; test: as above; settings: both partners purified
[24] = target: T4, human cytosolic Hsp70 (HSPA1A; UK2510; …); test: as above; settings: both partners purified
[25] = target: T5, human Hsc70 (HSPA8; UK2511); test: as above; settings: both partners purified
[26] = target: T2, BiP (Chinese hamster, wild type, UK173); test: as above; settings: both partners purified; remark: listed apart in the source
[27] = target: T1, DnaK from Escherichia coli (UK2243); test: BLI; streptavidin sensor with biotinylated J-domain of E. coli DnaJ (residues 1-72) and biotinylated P15 co-immobilised; association: 5 µM DnaK, 3 mM MgCl2, 1.5 mM ATP; dissociation in protein-free solution with Mg + ATP + ADP ([ATP]/[ADP]=2); 28°C; 50 mM HEPES-KOH pH 7.4, 100 mM KCl, 0.2 mM TCEP, 0.05% Triton X-100; one-phase decay fit; settings: both partners purified

T1 sequence (P0A6Y8 whole entry): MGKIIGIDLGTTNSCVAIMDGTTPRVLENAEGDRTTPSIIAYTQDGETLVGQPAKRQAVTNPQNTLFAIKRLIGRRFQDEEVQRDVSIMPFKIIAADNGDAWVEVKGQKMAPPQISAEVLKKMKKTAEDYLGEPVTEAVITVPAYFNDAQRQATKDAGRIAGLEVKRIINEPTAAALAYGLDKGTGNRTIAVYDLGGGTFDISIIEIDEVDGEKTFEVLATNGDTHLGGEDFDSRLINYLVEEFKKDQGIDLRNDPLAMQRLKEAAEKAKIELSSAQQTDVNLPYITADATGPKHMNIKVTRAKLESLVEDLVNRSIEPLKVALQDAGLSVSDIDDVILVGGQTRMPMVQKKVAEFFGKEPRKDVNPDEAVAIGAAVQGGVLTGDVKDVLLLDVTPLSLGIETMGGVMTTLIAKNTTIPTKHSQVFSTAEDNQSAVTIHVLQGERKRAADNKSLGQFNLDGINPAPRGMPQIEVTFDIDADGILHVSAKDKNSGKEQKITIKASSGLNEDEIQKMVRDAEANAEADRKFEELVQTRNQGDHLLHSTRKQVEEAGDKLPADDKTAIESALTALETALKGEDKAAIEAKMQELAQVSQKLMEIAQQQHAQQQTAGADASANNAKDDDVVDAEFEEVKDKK
T3 sequence (P29844 19-656): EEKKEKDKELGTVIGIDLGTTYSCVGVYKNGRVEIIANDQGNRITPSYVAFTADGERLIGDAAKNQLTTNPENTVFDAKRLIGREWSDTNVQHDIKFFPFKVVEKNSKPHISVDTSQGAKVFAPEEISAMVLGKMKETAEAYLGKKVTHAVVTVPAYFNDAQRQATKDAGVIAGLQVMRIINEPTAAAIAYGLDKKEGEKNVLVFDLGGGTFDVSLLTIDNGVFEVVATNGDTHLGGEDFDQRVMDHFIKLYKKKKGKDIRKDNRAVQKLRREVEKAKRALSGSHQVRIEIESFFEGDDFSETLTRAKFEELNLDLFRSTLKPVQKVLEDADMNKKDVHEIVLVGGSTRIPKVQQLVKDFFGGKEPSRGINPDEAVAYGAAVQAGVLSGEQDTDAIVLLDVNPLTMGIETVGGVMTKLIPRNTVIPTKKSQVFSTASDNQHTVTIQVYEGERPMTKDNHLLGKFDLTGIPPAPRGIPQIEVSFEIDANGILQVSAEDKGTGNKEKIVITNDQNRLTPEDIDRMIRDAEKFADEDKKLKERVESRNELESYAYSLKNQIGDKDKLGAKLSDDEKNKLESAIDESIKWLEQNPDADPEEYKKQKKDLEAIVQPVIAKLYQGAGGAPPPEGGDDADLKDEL
T2 sequence (G3I8R9 19-654): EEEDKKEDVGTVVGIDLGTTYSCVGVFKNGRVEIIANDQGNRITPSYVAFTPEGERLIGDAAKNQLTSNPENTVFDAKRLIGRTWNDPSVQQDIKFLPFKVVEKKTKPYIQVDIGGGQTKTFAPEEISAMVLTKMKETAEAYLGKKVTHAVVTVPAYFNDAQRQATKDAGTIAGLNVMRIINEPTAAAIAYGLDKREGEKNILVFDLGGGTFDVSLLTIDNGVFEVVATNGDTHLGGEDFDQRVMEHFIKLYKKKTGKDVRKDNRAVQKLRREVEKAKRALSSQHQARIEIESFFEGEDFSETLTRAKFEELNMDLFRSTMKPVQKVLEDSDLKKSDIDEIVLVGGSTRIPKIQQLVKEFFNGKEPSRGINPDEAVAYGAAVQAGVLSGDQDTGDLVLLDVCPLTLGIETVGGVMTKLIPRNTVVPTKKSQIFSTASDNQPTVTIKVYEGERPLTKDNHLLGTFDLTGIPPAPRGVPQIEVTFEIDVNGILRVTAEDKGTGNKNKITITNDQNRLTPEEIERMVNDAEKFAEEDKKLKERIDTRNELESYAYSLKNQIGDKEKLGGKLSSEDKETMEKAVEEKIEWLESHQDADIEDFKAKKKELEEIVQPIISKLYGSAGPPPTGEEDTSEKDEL
T4 sequence (P0DMV8 whole entry E110D): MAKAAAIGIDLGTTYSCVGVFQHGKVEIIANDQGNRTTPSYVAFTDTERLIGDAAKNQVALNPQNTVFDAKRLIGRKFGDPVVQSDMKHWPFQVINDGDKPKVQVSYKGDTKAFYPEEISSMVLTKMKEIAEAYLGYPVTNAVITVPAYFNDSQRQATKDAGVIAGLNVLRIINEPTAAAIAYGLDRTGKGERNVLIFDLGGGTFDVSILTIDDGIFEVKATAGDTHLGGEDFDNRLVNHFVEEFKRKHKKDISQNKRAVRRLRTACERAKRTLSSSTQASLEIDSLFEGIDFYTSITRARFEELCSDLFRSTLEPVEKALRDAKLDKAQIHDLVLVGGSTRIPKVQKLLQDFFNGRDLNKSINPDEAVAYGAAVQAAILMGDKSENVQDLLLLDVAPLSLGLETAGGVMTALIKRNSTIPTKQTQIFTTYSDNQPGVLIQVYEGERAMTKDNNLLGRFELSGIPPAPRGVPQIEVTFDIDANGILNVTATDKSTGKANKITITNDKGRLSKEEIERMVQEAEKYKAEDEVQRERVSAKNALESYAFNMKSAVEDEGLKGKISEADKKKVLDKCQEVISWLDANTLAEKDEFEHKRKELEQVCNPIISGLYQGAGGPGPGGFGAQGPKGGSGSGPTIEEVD
T5 sequence (P11142 whole entry): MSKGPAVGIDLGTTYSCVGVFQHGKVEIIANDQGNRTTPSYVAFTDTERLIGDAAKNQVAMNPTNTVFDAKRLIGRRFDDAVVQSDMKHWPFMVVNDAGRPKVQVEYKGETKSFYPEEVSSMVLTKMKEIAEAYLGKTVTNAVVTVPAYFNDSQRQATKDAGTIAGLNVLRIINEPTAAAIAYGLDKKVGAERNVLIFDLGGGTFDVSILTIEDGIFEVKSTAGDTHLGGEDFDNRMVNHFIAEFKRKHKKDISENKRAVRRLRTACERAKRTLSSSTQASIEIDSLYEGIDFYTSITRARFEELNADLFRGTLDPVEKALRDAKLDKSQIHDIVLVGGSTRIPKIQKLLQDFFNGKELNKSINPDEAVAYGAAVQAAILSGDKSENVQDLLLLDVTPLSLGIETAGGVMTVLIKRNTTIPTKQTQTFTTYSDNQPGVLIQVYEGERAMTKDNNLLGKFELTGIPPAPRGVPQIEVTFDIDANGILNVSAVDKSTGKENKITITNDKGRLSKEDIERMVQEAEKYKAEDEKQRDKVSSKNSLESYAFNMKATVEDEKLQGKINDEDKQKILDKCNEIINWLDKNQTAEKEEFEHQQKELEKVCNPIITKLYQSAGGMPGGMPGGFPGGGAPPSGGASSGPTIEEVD

B1: Chinese hamster BiP^T229A-V461F (residues 28–549), lid-truncated (domain or fragment)
chain: not shown
notes: also called apo BiP oligomer; ADP BiP oligomer; source: E. coli M15, purified (as in Perera et al., 2019; anion exchange, gel filtration)
binding result [1]: binds

B2: P15 BiP substrate peptide (peptide)
peptide: ALLLSAPRRGAGKK(Biotin)
notes: substrate peptide P15 (Misselwitz et al., 1998); Held on streptavidin BLI sensors together with a biotinylated J-domain (ERdj6 residues 390-455, wild type or H422Q; for DnaK the J-domain of DnaJ, residues 1-72); source: synthetic peptide (custom synthesis, GenScript)
koff [2]: 0.00636 s⁻¹ and 0.00686 s⁻¹ and 0.00525 s⁻¹ and 0.00615 s⁻¹ | koff [3]: 0.00145 s⁻¹ (2×) and 0.00148 s⁻¹ | koff ([3]; mean): 0.00146 s⁻¹ | koff [4]: 0.00121 s⁻¹ and 0.0012 s⁻¹ and 0.00122 s⁻¹ | koff ([4]; mean): 0.00121 s⁻¹ | koff [5]: 0.00239 s⁻¹ and 0.00247 s⁻¹ and 0.00254 s⁻¹ | koff ([5]; mean): 0.00247 s⁻¹ | koff [6]: 0.0103 s⁻¹ and 0.00955 s⁻¹ and 0.00937 s⁻¹ | koff ([6]; mean): 0.00974 s⁻¹ | koff [7]: 0.0025 s⁻¹ and 0.00254 s⁻¹ and 0.00241 s⁻¹ and 0.00255 s⁻¹ | koff [8]: 0.00384 s⁻¹ and 0.00414 s⁻¹ and 0.00359 s⁻¹ and 0.0038 s⁻¹ | koff [9]: 0.00171 s⁻¹ and 0.00178 s⁻¹ and 0.00164 s⁻¹ | koff [10]: 0.00336 s⁻¹ and 0.00333 s⁻¹ and 0.00344 s⁻¹ and 0.00318 s⁻¹ | koff [11]: 0.0025 s⁻¹ and 0.0024 s⁻¹ and 0.00243 s⁻¹ | koff ([11]; mean): 0.00244 s⁻¹ | koff [12]: 0.00575 s⁻¹ and 0.00678 s⁻¹ and 0.00573 s⁻¹ | koff ([12]; mean): 0.00609 s⁻¹ | koff [13]: 0.00682 s⁻¹ and 0.00595 s⁻¹ and 0.00602 s⁻¹ | koff ([13]; mean): 0.00626 s⁻¹ | koff [14]: 0.00546 s⁻¹ and 0.00506 s⁻¹ and 0.00591 s⁻¹ | koff ([14]; mean): 0.00547 s⁻¹ | koff [15]: 0.0074 s⁻¹ and 0.00639 s⁻¹ and 0.00848 s⁻¹ | koff ([15]; mean): 0.00742 s⁻¹ | koff [16]: 0.00203 s⁻¹ and 0.000861 s⁻¹ and 0.000902 s⁻¹ | koff ([16]; mean): 0.00127 s⁻¹ | koff [17]: 0.00101 s⁻¹ and 0.000958 s⁻¹ and 0.00117 s⁻¹ | koff ([17]; mean): 0.00105 s⁻¹ | koff [18]: 0.00294 s⁻¹ and 0.00337 s⁻¹ and 0.00333 s⁻¹ | koff ([18]; mean): 0.00321 s⁻¹ | koff [19]: 0.00684 s⁻¹ and 0.00682 s⁻¹ and 0.00672 s⁻¹ | koff ([19]; mean): 0.00679 s⁻¹ | koff [20]: 0.00583 s⁻¹ and 0.00632 s⁻¹ and 0.00607 s⁻¹ | koff ([20]; mean): 0.00607 s⁻¹ | koff [21]: 0.00421 s⁻¹ and 0.00438 s⁻¹ and 0.00441 s⁻¹ | koff ([21]; mean): 0.00433 s⁻¹ | koff [22]: 0.00441 s⁻¹ and 0.00438 s⁻¹ and 0.00434 s⁻¹ and 0.00453 s⁻¹ | koff [23]: 0.00811 s⁻¹ and 0.00832 s⁻¹ and 0.00795 s⁻¹ and 0.00806 s⁻¹ | koff [24]: 0.00203 s⁻¹ and 0.00225 s⁻¹ and 0.00198 s⁻¹ and 0.00185 s⁻¹ | koff [25]: 0.00395 s⁻¹ and 0.00411 s⁻¹ and 0.00394 s⁻¹ and 0.0038 s⁻¹ | koff [26]: 0.00434 s⁻¹ (2×) and 0.00424 s⁻¹ | koff ([26]; mean): 0.00431 s⁻¹ | koff [27]: 0.00693 s⁻¹ and 0.00776 s⁻¹ and 0.00549 s⁻¹ and 0.00673 s⁻¹
